Reference: PMC10397247
Like-named read-outs stand apart in the source and are kept apart here. Values belong to the binder of their own block, whether it stands above or below them.

Legend:
[1] = molecular target: T1, 4H3413-AA; test: two-hybrid library CCmax; details: mean of both orientations;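 further: natural log of median RNA to DNA barcode read ratio; higher means stronger binding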
T1 chain: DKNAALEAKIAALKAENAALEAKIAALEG

[2] = molecular target: T2, 4H384-AA; test: two-hybrid library CCmax; details: mean of both orientations;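 further: natural log of median RNA to DNA barcode read ratio; higher means stronger binding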
T2 chain: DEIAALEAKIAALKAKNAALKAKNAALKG

[3] = molecular target: T3, 4H340-AA; test: two-hybrid library CCmax; details: mean of both orientations;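 further: natural log of median RNA to DNA barcode read ratio; higher means stronger binding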
T3 chain: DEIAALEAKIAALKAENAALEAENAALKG

[4] = molecular target: T4, 4H32-AA; test: two-hybrid library CCmax;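 further: natural log of median RNA to DNA barcode read ratio; higher means stronger binding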
T4 chain: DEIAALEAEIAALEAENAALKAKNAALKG

[5] = molecular target: T5, 4H697-AA; test: two-hybrid library CCmax; details: mean of both orientations
T5 chain: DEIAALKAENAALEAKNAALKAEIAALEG

[6] = molecular target: T6, 4H3378-AA; test: two-hybrid library CCmax
T6 chain: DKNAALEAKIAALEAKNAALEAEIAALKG

[7] = molecular target: T7, 4H3697-AA; test: two-hybrid library CCmax; details: mean of both orientations
T7 chain: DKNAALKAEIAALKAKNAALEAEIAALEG

[8] = molecular target: T8, 4H3865-AA; test: two-hybrid library CCmax; details: mean of both orientations
T8 chain: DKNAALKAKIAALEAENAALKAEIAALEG

[9] = molecular target: T9, 4H3606-AA; test: two-hybrid library CCmax; details: mean of both orientations
T9 chain: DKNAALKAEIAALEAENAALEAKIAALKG

[10] = molecular target: T10, 4H3718-AA; test: two-hybrid library CCmax; details: mean of both orientations
T10 chain: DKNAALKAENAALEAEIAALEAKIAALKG

[11] = molecular target: T11, 4H3631-AA; test: two-hybrid library CCmax; details: mean of both orientations
T11 chain: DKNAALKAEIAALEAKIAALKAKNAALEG

[12] = molecular target: T12, 4H3588-AA; test: two-hybrid library CCmax; details: mean of both orientations
T12 chain: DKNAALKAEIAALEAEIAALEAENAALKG

[13] = molecular target: T13, 4H982-AA; test: two-hybrid library CCmax; details: mean of both orientations
T13 chain: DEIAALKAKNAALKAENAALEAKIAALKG

[14] = molecular target: T14, APC9319-AA; test: two-hybrid library CCmax; details: mean of both orientations
T14 chain: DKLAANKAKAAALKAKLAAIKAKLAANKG

[15] = molecular target: T15, APC7099-AA; test: two-hybrid library CCmax
T15 chain: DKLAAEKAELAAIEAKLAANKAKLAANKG

[16] = molecular target: T16, APC9096-AA; test: two-hybrid library CCmax; details: mean of both orientations
T16 chain: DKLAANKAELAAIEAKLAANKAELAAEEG

[17] = molecular target: T17, APC8191-AA; test: two-hybrid library CCmax; details: mean of both orientations
T17 chain: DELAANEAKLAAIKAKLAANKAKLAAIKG

[18] = molecular target: T18, APC8910-AA; test: two-hybrid library CCmax; details: mean of both orientations
T18 chain: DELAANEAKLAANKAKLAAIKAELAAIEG

[19] = molecular target: T19, 4H883-bN; test: two-hybrid library CCNG1
T19 chain: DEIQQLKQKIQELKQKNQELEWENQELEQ

[20] = molecular target: T20, 4H918-bN; test: two-hybrid library CCNG1
T20 chain: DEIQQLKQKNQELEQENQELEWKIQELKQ

[21] = molecular target: T21, 4H754-bN; test: two-hybrid library CCNG1
T21 chain: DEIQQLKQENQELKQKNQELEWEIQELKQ

[22] = molecular target: T22, 4H72-bN; test: two-hybrid library CCNG1
T22 chain: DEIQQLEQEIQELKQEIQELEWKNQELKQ

[23] = molecular target: T23, 4H717-bN; test: two-hybrid library CCNG1
T23 chain: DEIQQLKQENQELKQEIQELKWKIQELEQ

[24] = molecular target: T24, 4H953-bN; test: two-hybrid library CCNG1
T24 chain: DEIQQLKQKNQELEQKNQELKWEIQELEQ

[25] = molecular target: T25, 4H967-bN; test: two-hybrid library CCNG1
T25 chain: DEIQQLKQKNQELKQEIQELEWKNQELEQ

[26] = molecular target: T26, 4H687-bN; test: two-hybrid library CCNG1
T26 chain: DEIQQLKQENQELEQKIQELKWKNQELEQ

[27] = molecular target: T27, 4H908-bN; test: two-hybrid library CCNG1
T27 chain: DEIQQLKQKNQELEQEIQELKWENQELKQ

[28] = molecular target: T28, 4H797-bN; test: two-hybrid library CCNG1
T28 chain: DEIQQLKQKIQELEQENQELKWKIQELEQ

[29] = molecular target: T29, 4H607-bN; test: two-hybrid library CCNG1
T29 chain: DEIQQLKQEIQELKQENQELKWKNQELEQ

[30] = molecular target: T30, 4H568-bN; test: two-hybrid library CCNG1
T30 chain: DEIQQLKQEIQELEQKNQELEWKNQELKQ

[31] = molecular target: T31, 4H483-AA; test: two-hybrid library CCmax; details: mean of both orientations
T31 chain: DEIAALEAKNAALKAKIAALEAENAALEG

[32] = molecular target: T32, 4H464-AA; test: two-hybrid library CCmax; details: mean of both orientations
T32 chain: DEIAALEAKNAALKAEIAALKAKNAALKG

[33] = molecular target: T33, 4H380-AA; test: two-hybrid library CCmax; details: mean of both orientations
T33 chain: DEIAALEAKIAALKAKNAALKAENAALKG

[34] = molecular target: T34, 4H3782-AA; test: two-hybrid library CCmax; details: mean of both orientations
T34 chain: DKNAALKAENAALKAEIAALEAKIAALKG

[35] = molecular target: T35, 4H63-AA; test: two-hybrid library CCmax; details: mean of both orientations
T35 chain: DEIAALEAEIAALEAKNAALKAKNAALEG

[36] = molecular target: T36, 4H446-AA; test: two-hybrid library CCmax; details: mean of both orientations
T36 chain: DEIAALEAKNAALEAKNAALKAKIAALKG

[37] = molecular target: T37, 4H3629-AA; test: two-hybrid library CCmax; details: mean of both orientations
T37 chain: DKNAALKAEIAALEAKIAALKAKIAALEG

[38] = molecular target: T38, 4H3595-AA; test: two-hybrid library CCmax
T38 chain: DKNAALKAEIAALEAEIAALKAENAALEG

[39] = molecular target: T39, 4H3939-AA; test: two-hybrid library CCmax; details: mean of both orientations
T39 chain: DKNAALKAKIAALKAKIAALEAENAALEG

[40] = molecular target: T40, 4H3969-AA; test: two-hybrid library CCmax; details: mean of both orientations
T40 chain: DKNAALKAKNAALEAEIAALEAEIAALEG

[41] = molecular target: T41, 4H55-AA; test: two-hybrid library CCmax
T41 chain: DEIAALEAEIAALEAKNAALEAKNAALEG

[42] = molecular target: T42, 4H481-AA; test: two-hybrid library CCmax
T42 chain: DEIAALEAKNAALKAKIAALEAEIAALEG

[43] = molecular target: T43, 4H662-AA; test: two-hybrid library CCmax; details: mean of both orientations
T43 chain: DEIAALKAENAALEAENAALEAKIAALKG

interaction score [1]: 0.814
interaction score [2]: 1.2
interaction score [3]: 1.89
interaction score [4]: 0.0438
interaction score [5]: -1.89
interaction score ([6]; mean of both orientations): -1.84
interaction score [7]: -0.509
interaction score [8]: 1.4
interaction score [9]: -0.292
interaction score [10]: -0.924
interaction score [11]: -0.675
interaction score [12]: -0.686
interaction score [13]: -0.329
Binder: DEIAALEAEIAALEAENAALKAKNAALKG [4H32-AA]

interaction score [14]: -2.06
interaction score [15]: -1.86
interaction score [16]: -1.55
interaction score [17]: -1.62
interaction score [18]: -2.07
Binder: DKLAAEKAELAAIEAKLAANKAKLAANKG [APC7099-AA]

interaction score [19]: 0.227
interaction score [20]: -0.686
interaction score [21]: 0.422
interaction score [22]: -1.56
interaction score [23]: 0.114
interaction score [24]: -1.1
interaction score [25]: 0.425
interaction score [26]: -0.549
interaction score [27]: -0.555
interaction score [28]: 0.169
Binder: DEIQQLKQENQELEQKIQELKWKNQELEQ [4H687-bN]

interaction score [19]: 1.1
interaction score [20]: -0.124
interaction score [21]: 0.0731
interaction score [22]: -0.806
interaction score [23]: -0.157
interaction score [24]: -1.93
interaction score [25]: -0.452
interaction score [29]: -0.164
interaction score [26]: 0.312
interaction score [27]: 1.08
interaction score [28]: 0
interaction score [30]: 0.761
Binder: DEIQQLKQEIQELEQKNQELEWKNQELKQ [4H568-bN]

interaction score [31]: -1.8
interaction score [32]: 1.2
interaction score [33]: 0.0185
interaction score [34]: -1.1
interaction score [35]: -0.914
interaction score [36]: -1.59
interaction score [37]: 0.754
interaction score [38]: -0.866
interaction score [39]: -0.576
interaction score [40]: -1.4
Binder: DKNAALKAEIAALEAEIAALKAENAALEG [4H3595-AA]

interaction score [41]: -1.31
interaction score [42]: 0.282
interaction score [43]: 1.83
Binder: DEIAALEAKNAALKAKIAALEAEIAALEG [4H481-AA]

interaction score [1]: -1.24
interaction score [2]: -1.9
interaction score [3]: -1.86
interaction score [5]: -2.13
interaction score [6]: 1.2
interaction score [7]: -1.32
interaction score [8]: -0.877
interaction score [9]: -0.302
interaction score [10]: -1.79
interaction score [11]: -1.65
interaction score [12]: -1.31
interaction score [13]: -1.5
Binder: DKNAALEAKIAALEAKNAALEAEIAALKG [4H3378-AA]

interaction score [19]: -0.0445
interaction score [20]: -1.09
interaction score [21]: -0.997
interaction score [22]: -1.73
interaction score [23]: 1.4
interaction score [24]: -1.57
interaction score [25]: -0.445
interaction score [27]: -0.377
interaction score [28]: -1.95
Binder: DEIQQLKQENQELKQEIQELKWKIQELEQ [4H717-bN]
